This note sets out measurements from the DeepSol protein solubility set.

A short description of this data set: soluble on expression in E. coli; label from the status in PepcDB or PDB records.
“MGSDKIHHHHHHMNEAQQERRRSVRRDLHSYPEPAWREFYTTSRIAEEIERIGVDQLYIGRNVVDGDARMAVPDDDELEDWQRKARDAGAREDVLEAAAGGFTGALAVLEQGEGPTVALRVDIDALPITESDSVAHAPATEEFRSTNEGYMHACGHDAHATIGLGVLEAVKESDFKGTFKVVFQPAEEVIGGGKAVAESGHLDDVDHLLAIHIGLDHPTGEIVAGVGGFLAVRQFEATFTGETAHAGGHPAQGRDAVQALATAVQNLHAIRRHGDGATRVNAGVVEGGTATNIVPGEATLEGEVRGETTPLKEYMSERADTVMSSAAEMHDCEVAIETTAEAPSAVSDDALAGVVYDAADSVPGVTSRLRTDDLGGSEDATYLMDRVQNHGGTATFVGIGTDHPGGHHTPLFDIDEDSLTIGIDVVTEAISQLSG”: the “soluble on expression in E. coli” value is listed as “not soluble”.

For “MGSDKIHHHHHHMNEKEYEERLRIETIDIQHLYNAFSHYNRYEPTPYAALEELCAVYPFDYTDTVIDFGCGKGRLNFYLHDRFDCSVIGVEMNGQFYEDALMNQVTYMKKMKRRRGSIRFEHTYAEAYPIPDDVTKCYFFNPFSVQIFMKVVDQILASVERHPRPVDLILYYPADEYRYYLENQTIFEQVEEVRLKELFEKNHDERFVIYRVNLSQEVPKRV”, the “soluble on expression in E. coli” value was “not soluble”.

As to “MGSDKIHHHHHHMNELQNFNFEGNEVRTVLINDEPYFVGKDVATAIGYQNTRKAIKDHVKTKYMREERIVTPSGTQTMTVISEPGIYQLAGQSKLPTAEPFQDWIYEEVLPSIRKHGAYMTDEKIEEALLNPDTIISLATQLKNEREKVEVERNGRLIAEQRVEELQPKADYYDQILSNKGVVTVTSIAKNYGMTAPELNKLLNRLGVQYSQSGSWYLYKKYQKNGYTHTIPVPYSHRDGRPDIKPQTKWTQKGHIFIYQLLKEHGILPMIEMKDESAV”, the “soluble on expression in E. coli” value is given as “not soluble”. Turning to “MGSDKIHHHHHHMNEREICERIAEILNLEHDCSKGIDDLLKILEYEINEYRKSLEEQAMFMEAQIEELSRSYEEISTLLEISEIFGTFEFPLNLQDKLEKVIRLLRNVIKFESYLVHLESELTVGDLNREEIEPEIGNPEKTVLIEPGKSEKFSNLLFVPIKGNKYYGYVCFVGKEDGGVFTAGDRKIAEMTARYIASALDRLDFLKKEIERERLEEQLNIARQIQTNLLPRKIPEIGFVEADACSQPAVQVGGDYYDFFVSQEKRFLTVVGDVAGKSVPAALLMSAVRSYLKVLVTTCPDLEKLVNRLNTILCEDMTNDRFVTMAFIEISPDGTLNLINAGHNPVYFLHKGELVKIEASAIPIGITEWEYKKHTIHLKPDTFVISYSDGLTEARNEAGEEFGYERLEKILREFKGETPAELLEALRKRVKSFMGDAQQHDDMTIVVLKYKGQQEVE”, the “soluble on expression in E. coli” value is given as “not soluble”. Turning to “MGSDKIHHHHHHMNFIKTISPIQKINFNGFEFYIKRDDLLGEINGNKARKLAFYIHQRYPKNQSFVSYGGSQSNALAALSIFAKQRSYKLVFACEKISTFLKNNPCGNYALALENGVDFVENIHSLSLKQFALSLCKKDDVFIEQGIANLEAQYGYMELAQEIQMQSQSLKLDFDIFLPSGTGTSAAFLAKYSKFKVFTCACVGDIKYLKKQILTLDPSYDFSNLEFLTSDKKYHFAKPYKEFYELYMDLKLKCNIEFDLLYDILGLSIALKQEWKKPLLYIHQGGILGNSTMLERYKFKKSV”, the “soluble on expression in E. coli” value is “not soluble”. For the sequence “MGSDKIHHHHHHMNFREEFKLLLRARYPLIYIPTYEEERVEAAIREEATNQGNRPVYTWDFVDGYQGNPNDVGFGRRNPLQALEFIEKLPASAPAVLILRDYHRFLDDVAIARKLRNLSRLLKSQPKNIVLLSPRIAIPDDLTEVLTVVEFPLPAAAEIKTEVERLLQSTGNSLSGKVLDDLVLSCQGLSMERIRRVLAKAIATHGELQPEDVDLVLEEKRQTIRQTQILDFYPATEQISDIGGLDNLKDWLIRRGGSFTDKARQYGLPHPRGLMLVGIQGTGKSLTAKAIAHHWHLPLLRLDVGRLFGGLVGESESRTRQMIQVAEALAPCILWIDEIDKAFAGLGSKGDAGTASRVFGTFINWLAEKSSPVFVVATANDIQALPPEMLRKGRFDEIFFVGLPTQEERKAIYDVHLSRLRPHNLKSYDIERLAYETPDFSGAEIEQTLIEAMHIGFSQNRDFATDDILEAASQIVPLARTAVEQIQQLQEWAAAGRARLASKHNPLSERLRRTT”, the “soluble on expression in E. coli” value was “not soluble”. With “MGSDKIHHHHHHMNGHLNDCLICDGKLEYLDAAEEMECVICHKKHLNNVRCINRHYICDECHSKRGAKIILEVCRTTDSKNPIEIMQKLMAKPFIHMHGPEHHILTGAALLAAYHNSGGQLDLNKALNEIERRAKQVPGGACGFWGCCGAAISTGMFISIATGATPLSEREWSLSNLITSKVLRRISALGGPRCCKRNCFTAAKVAVEFTGEQLAVNMELPVDICCFFSPNNHECKGALCPYSPQHSNS” the entry was “not soluble”; with “MGSDKIHHHHHHMNIELADLRLFVMIAECGNLTHGAARAFLSPPAASARIKAMEQEIGQQLLVRKNKGVELTPSGDALLRHARLVLRQFDFLTDDMTNAQMGHLRIYANTTGVTEFLPAILARFLADHPGVRVDLQERLTQEIIRAVADGTADIGIISGTEGRDGLERLRFATDRLMLAVPSGHHLAHHDQVSLEQTLAFEHIALHDGSTLLDFLRRQLRRSAFDRQLRIQVRSFEAMCRLIEAGVGIGVVPESAALRHLQTMDITLLALADDWAVRDRSILVRRWADLPQSAQRLIDLLVEKEAGGAEV”, “not soluble”. As for “MGSDKIHHHHHHMNIKIAKNAGFCFGVKRAMKMAWDEVEKNDSGIYALGPLIHNKQAVAKYEEKGLKTVNEIDTIPNHENMIIRSHGVPENIYKEAKDKKLKIVDTTCPFVKKIHTVVSEYHNKGYEIIVIGDMKHPEVIGINGWCENSAIIIKTLEQMENMEFDNSKRYCLVAQTTINPELYISIVNKLSDKLEEIVFNDTICSATKTRQESAKELAKEVDCMIVIGGKHSSNTQKLVKVCEDLVPTFAIETKDELDVNTLKKYKNLGITAGASTPNWIIEEVVTFLENL”, the “soluble on expression in E. coli” value is recorded as “not soluble”. Take “MGSDKIHHHHHHMNILVIGANGGVGSLLVQQLAKENVPFTAGVRQSDQLNALKSQGMKAILVDVENDSIETLTETFKPFDKVIFSVGSGGNTGADKTIIVDLDGAVKSMIASKEANIKHYVMVSTYDSRRQAFDDSGDLKPYTIAKHYADDYLRRSGLNYTILHPGALTNAAGSGKIEAAQYFDGKGEIPREDVATVLKEIVTSNHFNHQEFQIISGEQDIKDALTQFEIEKD”: the “soluble on expression in E. coli” value is listed as “not soluble”. With “MGSDKIHHHHHHMNILVSNGEEHVNQTIASFFHQRGDRPILLFTEKEKHLEYVAGHPEQEAVLCTTYEEETLAAMVKEAFEEEAIDVLVHGNEMVNEAELLERDPSSLNEVVQKALYHLFLLNKVVVRDMVKRKQGKIIFPLFYDPLYYAGYASSPILNQAKLSLMKCMSRELGAFKINVNSITFGYYNDQFTREEKKATKSQVEIFCLKPKLPEIEEYVHSIGLLVDPSASLIGGENLHVGAGIETGI”, the “soluble on expression in E. coli” value was “not soluble”. With “MGSDKIHHHHHHMNIQEAFNAAAVDYDSLRRILIPCFDDFYKTAVEIIPIERTAPIKVLDLGAGTGLYSGMVQSVFPNAELTLLDLAPEMLEKAKLRFSKMGKSPKILIGDYVETNLDDSYDLIISALSIHHLSDFDKELLYQRIYNFLNPGGIFVNADQVLGKTPDLEELYRQHWLDSVRAKGISEEDLKAAQKRMEYDRMATLEIQLHWLEAAGFQNVDCWYKNFSFAVFGGYRPTI”, the “soluble on expression in E. coli” value is “not soluble”. For the sequence “MGSDKIHHHHHHMNKQVNFDELEVGYDVPALPGMDEADIQTPCLVLDLDALERNIKKMGDYAREHGMRHRVHGKMHKSVDVAKLQEELGGACGVCCQKVSEAEVFARGGIKDVMVSNQVTDPQKIDRLARMPKFGARVLCCVDDPANVADLSAAAVKHGTQIEALVEIDCGAGRCGVTTTQEVVNIAKMIDAAEGLKFAGIQAYQGAMQHLDSYDERASKTQVAIDMVEDAIAGLKANGLECDIVGGGGTGSYYFESNSGAFNELQCGSYAFMDADYGRILDKDGKRIDDGEWENALFILTSVMSHAKADKAIVDAGLKAQSVDSGLATIYGRDDVEYVKCSDEHGVVMDPDGVLNVNDKLRLVPGHCDPTCNVHDWYVGVRGGKVETLWPVSARGKAY”, the “soluble on expression in E. coli” value is listed as “not soluble”. For the sequence “MGSDKIHHHHHHMNLKSGYPFWSIRNGLMRPYPRLEQDTHCEVAIIGGGVTAALIAHELLRHGHEVVVIEQREIGWGSTSASTALLQYEIDTPMVDLAAQYGMPAAALAYGACAKAILDLQELCDGLGGCDFTRQDSLYYASRARDLKDLQRELDARKTHALPVEWIAGDALWHDYGVRSEGAILSRLAASVDPYRLCYRLFAECEQYGGRIYDRSPIATLQAHDQHVDLRTQDGVNVRARHVIMAAGYGNQQWLSQRVARNRSSYAFVTDPLHDTDVGALKHTMMWETARPYLYVRTTADGRVVAGGEDDSIDIPARRDARVLSKMDTLLKKIAKVMPDVRLRPVFAWGGTFAETADGLPFFGTHSEHGPRVAFAMAYGGNGITYSAIGAGLLRAQLEGRAYPLSDLFGFSRLG”, the “soluble on expression in E. coli” value was “not soluble”. For “MGSDKIHHHHHHMNLSHLKMMITVANLGSLQKTAEQLNRTQSAVSMALKKLEENAGFALFNRDGYRLELTEQGQHFLRQAEEVVRQQQRLQSLATQLKHGAEPLLTLCYDHTCDSKLWVPSIQHIQQQYPTTELHVDGESQMRALKRIDNGSADLALCPWLPLFRQYGDFETLPVAPFELTVVISTALMKEFGRMPQSRQDLLELPMLVPQNLEIGINLDAVLRLPSQQRIRVNEVNTQFELLMAGFGWGIIPKHIALDALEQGKLVEISIPGFVQQVRLEIHLVRSANRTLGPAANAIWESFA”, the “soluble on expression in E. coli” value is reported as “not soluble”. Take “MGSDKIHHHHHHMNMKVLLVNPVGEWGGAEKIFFLVSQIFQKTGFELYVLLGSRGILYEKLRNLNFNISIMNFPDLSENSIVIAGRRFQLPHHLLKNLRKIKILSKKFWDYLRILKPDIIYLNNLRSLVLYYETVRTYGKPCEAVVIWHEHGYQRSIIRQLILDKIYLKFVDAVICVSKHLANKHLKDVQQKLYVVHNGIPDELNAIEKENVRYEYNNNKVLIIHPAFITYWKGQHLALKAVDLLVKRGVRNFEIWFFGEPRSKQDYKYFKKLKQFVRSKNLEKQVFFKGFSANIIDEMLKADIVISTSVEDDPFPTILLEASMIGKPVVTTDAGGSGEIVKNGETGFVVKKDKRELASALCELIQNKELRDVFSKNARDRFLKEFSILAFEKRFLETLESILRR”: the “soluble on expression in E. coli” value is on record as “not soluble”. Take “MGSDKIHHHHHHMNMKYQHIIEVDKELCIGCGLCKNDCPVNNIIIENKKSVIKKQDCLMCGHCAAICPTKAITLTGFDEPPIELTNKPKLDSDELLMAIKSRRSIRKFKDKEVSSEIIKQIIEAGRYTPSAKNSQDVSYIVLDNKKSIYENEAVKFFRKIKPIANIAIKYSKEVEIDDNFFFKHAPIAIMIITKDKISGSLAASNMALMAESYGLGVLFSGYFSDVANNSPKLKKLLGLKRSNHVLTTLVIGYPDVKYRRTAQKEVATVRYL”: the “soluble on expression in E. coli” value is reported as “not soluble”. With “MGSDKIHHHHHHMNNFNNEIKLILQQYLEKFEAHYERVLQDDQYIEALETLMDDYSEFILNPIYEQQFNAWRDVEEKAQLIKSLQYITAQCVKQVEVIRARRLLDGQASTTGYFDNIEHCIDEEFGQCSIASNDKLLLVGSGAYPMTLIQVAKETGASVIGIDIDPQAVDLGRRIVNVLAPNEDITITDQKVSELKDIKDVTHIIFSSTIPLKYSILEELYDLTNENVVVAMRFGDGIKAIFNYPSQETAEDKWQCVNKHMRPQQIFDIALYKKAAIKVGITDV” the entry was “not soluble”.
